Binding result and Kd data for 3 molecules are collected here from patent US20100233165A1 (published 2010).

Experiment [1] addresses T1, ALCAM/MEMD/CD166 (UniProt Q13740 28-583, limits assumed).
T1 construct: whole, on cells; On Du-145 prostate cancer cells for FACS, and from lysates of surface-biotinylated Du-145 cells for IP/Western; Glycosylated, with a band of about 105 kDa; Du-145 is a human prostate cancer line
T1 sequence (looked up): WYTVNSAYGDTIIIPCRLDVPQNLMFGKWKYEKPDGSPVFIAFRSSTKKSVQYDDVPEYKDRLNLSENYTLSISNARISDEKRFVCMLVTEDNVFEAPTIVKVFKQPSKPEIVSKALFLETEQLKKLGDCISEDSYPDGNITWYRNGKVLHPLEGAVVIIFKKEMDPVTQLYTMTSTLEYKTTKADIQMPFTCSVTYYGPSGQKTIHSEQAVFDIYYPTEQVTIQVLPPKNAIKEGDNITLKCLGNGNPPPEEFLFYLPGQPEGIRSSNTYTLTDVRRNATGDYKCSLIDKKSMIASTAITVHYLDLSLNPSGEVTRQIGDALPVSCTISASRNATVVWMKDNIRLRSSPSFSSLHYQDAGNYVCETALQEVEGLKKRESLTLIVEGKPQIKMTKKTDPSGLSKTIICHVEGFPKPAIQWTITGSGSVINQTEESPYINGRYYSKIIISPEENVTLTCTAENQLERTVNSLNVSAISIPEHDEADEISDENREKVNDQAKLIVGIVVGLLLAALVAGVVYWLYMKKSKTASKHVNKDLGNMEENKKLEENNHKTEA
Briefly: caption of the IHC table. The source says: Phage antibodies selected by LCM were expected to bind to clinically relevant antigens on cancer cells in situ. We performed immunohistochemical studies using soluble scFv fragments derived from LCM-selected phage antibody on prostate cancer tissue sections. […] The 585II41 scFv also stained tumor cells intensely on frozen tissue slides (FIG. 4, panel B). Some basal cells in normal epithelium adjacent to tumor were also stained with reduced intensity (Table 5). […] These experiments indicate that antibodies obtained from LCM selection bind to antigens that exist in patient specimens and thus are clinically relevant to human prostate cancer. The corresponding antigens are likely targets for therapeutic intervention.
TABLE 5 Immunohistochemistry (IHC) results of the 585II41 and UA20 scFv fragments on a panel of frozen CaP and normal tissues. The numbers of cases studied are indicated. Biotinylated scFv fragments were first tested on cell lines to ensure binding activity and then used for IHC studies. As a control, a random scFv with no binding activity to cell lines was used to register the background level of staining. No change, no change in staining level was observed when compared with the result of the control scFv

For experiment [2], the target named is T1, ALCAM/MEMD/CD166. The experiment is described as follows: FACS competition on Du-145 cells against 585II41 scFv.
In experiment [3] the target is T1, ALCAM/MEMD/CD166. Briefly: apparent KD by FACS on Du-145 cells, IgG1 incubated at 4° C. overnight, curve fitting of MFI. The protocol: Monodispersed DU-145 cells were incubated with varying concentrations of IgG1s at 4° C. overnight to allow equilibrium binding. After washing, bound human IgG1s were detected by R-phycoerythrin-conjugated goat anti-human secondary antibody and analyzed by FACS. Mean fluorescence intensity (MFI) values were plotted and the KD was determined by curve fitting using GraphPad (GraphPad Software, San Diego, Calif.).

B1: 585II41 scFv (scFv, not shown: small tags and cut ends)
scFv: QVQLVESGGGLVQPGGSLRLSCAASGFTFSSYAMGWVRQAPGKGLEWVSAISGSGGSTYYADSVKGRFTISRDNSKDTLYLQMNSLRAEDTAVYYCASRSLLDYWGQGTLVTVSSGGGGSGGGGSGGGGSNFMLTQDPAVSVALGQTVRITCQGDSLRSYYASWYQQKPGQAPLLVIYGKNNRPSGIPDRFSGSSSGNTASLTITGAQAEDEADYYCNSRDSSGNPVFGGGTKVTVL
notes: Soluble monomeric scFv from E. coli periplasm, purified by IMAC; Biotinylated for FACS analysis by the general methods; also called clone #10; H3 variant
In the case of B1, in experiment [1], the binding result is on record as “binds”.

B2: H3 scFv (585II41.1) (scFv)
scFv: QVQLVESGGGLVQPGGSLRLSCAASGFTFSSYAMSWVRQAPGKGLEWVSAISGSGGSTYYADSVKGRFTISRDNSKDTLYLQMNSLRAEDTAVYYCASRSLLDYWGQGTLVTVSSGGGGSGGGGSGGGGSNFMLTQDPAVSVALGQTVRITCQGDSLRSYYASWYQQKPGQAPLLVIYGKNNRPSGIPDRFSGSSSGNTASLTITGAQAEDEADYYCNSRDSSGNPVFGGGTKVTVL
notes: also called clone #11; anti-ALCAM scFv
Turning to B2, the binding result in experiment [2] is recorded as “binds”.

B3: anti-ALCAM IgG1 (585II41.1, also known as H3) (antibody, V domains shown)
VH: QVQLVESGGGLVQPGGSLRLSCAASGFTFSSYAMSWVRQAPGKGLEWVSAISGSGGSTYYADSVKGRFTISRDNSKDTLYLQMNSLRAEDTAVYYCASRSLLDYWGQGTLVTVSS
VL: NFMLTQDPAVSVALGQTVRITCQGDSLRSYYASWYQQKPGQAPLLVIYGKNNRPSGIPDRFSGSSSGNTASLTITGAQAEDEADYYCNSRDSSGNPVFGGGTKVTVL
notes: Human IgG1 (detected with anti-human secondary antibody); also called H3 IgG; H3 IgG1
For the molecule B3, the Kd in experiment [3] turned out to be 4.4 µM.
